Laboratory results from article PMC13281839.

Target: N‐terminal half of fibrillin‐1, fragment rF90 (S19‐V1527) (UniProt P35555)
Test: SPR

Sequence of UniProt P35555 (P35555 45-1527): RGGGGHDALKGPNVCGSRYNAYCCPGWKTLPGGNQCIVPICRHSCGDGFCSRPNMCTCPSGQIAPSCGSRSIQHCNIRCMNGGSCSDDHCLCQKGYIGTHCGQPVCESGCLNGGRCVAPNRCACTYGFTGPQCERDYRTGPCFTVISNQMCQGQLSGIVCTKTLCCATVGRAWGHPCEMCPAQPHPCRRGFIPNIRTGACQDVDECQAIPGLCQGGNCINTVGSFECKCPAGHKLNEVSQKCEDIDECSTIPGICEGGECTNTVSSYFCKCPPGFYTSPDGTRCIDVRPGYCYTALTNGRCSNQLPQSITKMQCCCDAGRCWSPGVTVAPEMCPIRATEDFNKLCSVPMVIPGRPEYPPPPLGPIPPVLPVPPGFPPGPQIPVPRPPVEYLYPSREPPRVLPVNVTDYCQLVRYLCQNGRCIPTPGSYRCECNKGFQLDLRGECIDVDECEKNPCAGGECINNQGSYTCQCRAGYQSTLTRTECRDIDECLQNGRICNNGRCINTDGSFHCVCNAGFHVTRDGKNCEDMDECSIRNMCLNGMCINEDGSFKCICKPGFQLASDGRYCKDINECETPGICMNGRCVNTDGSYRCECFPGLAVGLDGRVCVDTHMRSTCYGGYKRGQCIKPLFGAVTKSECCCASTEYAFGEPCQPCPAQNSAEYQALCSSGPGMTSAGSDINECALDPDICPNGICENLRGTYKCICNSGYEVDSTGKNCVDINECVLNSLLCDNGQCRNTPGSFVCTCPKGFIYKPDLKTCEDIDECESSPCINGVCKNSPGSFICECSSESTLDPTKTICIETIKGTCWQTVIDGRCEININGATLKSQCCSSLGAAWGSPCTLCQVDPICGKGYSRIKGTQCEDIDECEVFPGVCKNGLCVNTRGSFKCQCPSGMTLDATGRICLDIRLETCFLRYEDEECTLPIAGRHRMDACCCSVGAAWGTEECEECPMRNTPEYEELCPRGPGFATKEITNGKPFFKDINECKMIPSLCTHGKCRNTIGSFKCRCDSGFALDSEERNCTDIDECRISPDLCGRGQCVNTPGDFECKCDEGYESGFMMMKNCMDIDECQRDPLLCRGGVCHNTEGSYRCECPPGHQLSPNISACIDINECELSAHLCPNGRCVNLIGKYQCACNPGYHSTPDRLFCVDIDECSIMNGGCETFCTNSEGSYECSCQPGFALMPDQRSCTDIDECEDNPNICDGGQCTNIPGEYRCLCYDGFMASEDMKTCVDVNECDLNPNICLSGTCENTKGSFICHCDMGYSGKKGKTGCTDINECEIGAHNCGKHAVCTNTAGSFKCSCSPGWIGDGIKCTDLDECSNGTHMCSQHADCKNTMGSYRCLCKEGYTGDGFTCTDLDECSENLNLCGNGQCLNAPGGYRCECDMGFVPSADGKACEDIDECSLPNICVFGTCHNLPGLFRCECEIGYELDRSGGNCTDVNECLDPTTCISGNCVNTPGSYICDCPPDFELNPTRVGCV

- Kd: 7 nM
Substance: BMP‐7 CPLX (BMP‐7 growth factor‐prodomain complex) (from UniProt P18075 293-431)
